Assay results reported in article PMC11407386, “Streptococcus suis 5’-nucleotidases contribute to adenosine-mediated immune evasion and virulence in a mouse model” (Virulence, 2024).

Test system: Nc1ncnc2c1ncn2[C@@H]1O[C@H](COP(=O)(O)O)[C@@H](O)[C@H]1O
Test: purified protein
Conditions: 50 mM Tris-HCl, 5 mM MnCl2, pH 7.5, 37°C, 0.05 µM enzyme

Row | Substance | Km (0-500 µM AMP) | Km (0-2000 µM AMP)
1 | SntA (Streptococcus suis BM407) | 13.67 µM | 
2 | SntC (Streptococcus suis BM407) | 83.7 µM | 
3 | SntD (Streptococcus suis BM407) |  | 412.1 µM
